# In patent US20150183867A1 (AbbVie / Abbott, published 2015):
# T1: Aβ 20-42 globulomer (UniProt P05067 691-713)
# T1 construct: domain: Aβ 20-42 globulomer
# T1 peptide (looked up): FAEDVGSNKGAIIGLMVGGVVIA
# How the values were obtained:
# Aβ 20-42 globulomer [1] = target: T1, Aβ 20-42 globulomer; assay: Aβ 20-42 globulomer ELISA, antigen on plate; N-terminal VD
# Protocol: (§1) ELISA assays were performed to screen for antibodies that bind a desired target antigen as follows. Aβ 20-42 globulomer and PBS at 37° C. was pre-warmed for 1 minute. High bind ELISA plates (Corning Costar #3369, Acton, Mass.) were coated with 100 μL/well of 41 µg/ml of Aβ 20-42 globulomer diluted in PBS overnight at 4° C. Plates were blocked with 320 μL/well of 100% superblock PBS buffer (Thermo Scientific, #37515) and incubated for 45 minutes at room temperature. Plates were washed three times after blocking with PBS containing 0.02% Tween 20.
# (§2) Antibody or DVD-Igs were diluted to 2000 ng/mL, 1000 ng/mL, 200 ng/mL, 40 ng/mL, 8 ng/mL, 1.6 ng/mL and 0.32 ng/mL in 10% superblock in PBS. One hundred microliters of antibody or DVD-Ig preparations was added to the plate in triplicate and incubated for 2 hours at room temperature. Wells were washed five times with PBS containing 0.02% Tween 20.
# (§3) One hundred microliters of TMB solution (Invitrogen-Zymed; #00-2023) was added to each well and incubated for 5 minutes. The reaction was stopped by the addition of 100 μL 2N sulphuric acid. Plates were read spectrophotometrically at a wavelength of 450 nm.
# Aβ1-42 [2] = target: T2, Aβ1-42 (UniProt P05067 672-713); assay: Aβ 1-42 ELISA, peptide on plate; C-terminal VD
# T2 construct: domain: Aβ1-42; Aβ 1-42 is a part of it; also called A beta
# Protocol: (§4) ELISA assays were performed to screen for antibodies that bind a desired target antigen as follows. Maxisorb NUNC Immuno plates were coated with 100 μL/well of 1 μg/ml of Aβ1-42 diluted in coating buffer overnight at 6° C. Plates were washed three times with PBS containing 0.02% Tween 20. Blocking solution was prepared by dissolving the blocking reagent for ELISA (Roche) in 100 mL water and then diluted further 1:10 prior to use. Plates were blocked by the addition of 265 μL/well blocking solution for 2 hours at room temperature. Plates were washed three times after blocking with PBS containing 0.02% Tween 20.
# (§5) Antibody or DVD-Igs were diluted to 100 ng/μL in PBST+0.5% BSA and serially diluted 1:3. One hundred microliters of antibody or DVD-Ig preparations was added to the plate and incubated for 2 hour at room temperature. Wells were washed three times with PBS containing 0.02% Tween 20.
# (§6) One hundred microliters of TMB solution was added to each well and incubated for 10 minutes. TMB solution was prepared by mixing 20 mL 100 mM natrium-acetate pH4.9 with 200 μL TMB solution (Roche #92817060) and 29.5 μL 3% H₂O₂. The reaction was stopped by the addition of 50 μL 1N sulphuric acid. Plates were read spectrophotometrically at a wavelength of 450 nm.
# Recombinant Human IL-1β [3] = target: T3, Recombinant Human IL-1β (human, UniProt P01584 117-269); assay: direct bind ELISA, antigen on plate; N-terminal VD
# T3 construct: Bought reagent; also called IL-1B
# Protocol: (§7) Enzyme Linked Immunosorbent Assays to screen for antibodies that bind a desired target antigen were performed as follows. High bind ELISA plates (Corning Costar #3369, Acton, Mass.) were coated with 100 μL/well of 10 μg/ml of desired target antigen (R&D Systems, Minneapolis, Minn.) or desired target antigen extra-cellular domain/FC fusion protein (R&D Systems, Minneapolis, Minn.) or monoclonal mouse anti-polyHistidine antibody (R&D Systems # MAB050, Minneapolis, Minn.) in phosphate buffered saline (10×PBS, Abbott Bioresearch Center, Media Prep# MPS-073, Worcester, Mass.) overnight at 4° C. Plates were washed four times with PBS containing 0.02% Tween 20. Plates were blocked by the addition of 300 μL/well blocking solution (non-fat dry milk powder, various retail suppliers, diluted to 2% in PBS) for 1/2 hour at room temperature. Plates were washed four times after blocking with PBS containing 0.02% Tween 20.
# (§8) One hundred microliters of antibody or DVD-Ig preparations diluted in blocking solution as described above was added to the desired target antigen plate or desired target antigen/FC fusion plate or the anti-polyHistidine antibody/His tagged desired target antigen plate prepared as described above and incubated for 1 hour at room temperature. Wells were washed four times with PBS containing 0.02% Tween 20.
# (§9) One hundred microliters of 10 ng/mL goat anti-human IgG-FC specific HRP conjugated antibody (Southern Biotech #2040-05, Birmingham, Ala.) was added to each well of the desired target antigen plate or anti-polyHistidine antibody/Histidine tagged desired target antigen plate. Alternatively, one hundred microliters of 10 ng/mL goat anti-human IgG-kappa light chain specific HRP conjugated antibody (Southern Biotech #2060-05 Birmingham, Ala.) was added to each well of the desired target antigen/FC fusion plate and incubated for 1 hour at room temperature. Plates were washed 4 times with PBS containing 0.02% Tween 20.
# Recombinant Human IL-1β [4] = target: T3, Recombinant Human IL-1β; assay: cell-based or functional assay
# Recombinant Human IL-1β [5] = target: T3, Recombinant Human IL-1β; assay: direct bind ELISA, antigen on plate; C-terminal VD
# Protocol: as §7, §8, §9
# Aβ1-42 [6] = target: T2, Aβ1-42; assay: Aβ 1-42 ELISA, peptide on plate; N-terminal VD
# Protocol: as §4, §5, §6
# IGF-II [7] = target: T4, IGF-II (UniProt P01344 25-91); assay: direct bind ELISA, antigen on plate; parent antibody; second of the two numbers, IGF2
# T4 construct: Bought reagent; also called IGF2; IGF-2
# Protocol: as §7
# as §8, with “20. […]” for “20.”
# IGF-I [8] = target: T5, IGF-I (UniProt P05019 49-118); assay: direct bind ELISA, antigen on plate; parent antibody; first of the two numbers, IGF1
# T5 construct: Bought reagent; also called IGF1; IGF-1
# Protocol: as §7
# as §8, with “20. […]” for “20.”
# Aβ 20-42 globulomer [9] = target: T1, Aβ 20-42 globulomer; assay: Aβ 20-42 globulomer ELISA, antigen on plate; C-terminal VD
# Protocol: as §1, §2, §3
# Aβ 20-42 globulomer [10] = target: T1, Aβ 20-42 globulomer; assay: Aβ 20-42 globulomer ELISA, antigen on plate; parent antibody
# Protocol: as §1, §2, §3
# IGF-I [11] = target: T5, IGF-I; assay: direct bind ELISA, antigen on plate; C-terminal VD
# Protocol: as §7, §8, §9
# IGF-II [12] = target: T4, IGF-II; assay: direct bind ELISA, antigen on plate; C-terminal VD
# Protocol: as §7, §8, §9
# Aβ1-42 [13] = target: T2, Aβ1-42; assay: Aβ 1-42 ELISA, peptide on plate; parent antibody
# Protocol: as §4, §5, §6
binder,measurement,setting,value
"DVD201 (bispecific antibody, human IgG1, kappa, DVD-Ig; also called VD201H/VD201L) heavy: not shown light: DVLVTQSPLSLPVTPGEPASISCRSTQTLVHRNGDTYLEWYLQKPGQSPQSLIYKVSNRFSGVPDRFSGSGSGTDFTLKISRVEAEDVGVYYCFQGSHVPYTFGQGTKLEIKRTVAAPDVVMTQSPLSLPVTPGEPASISCKSSQSLLDSDGKTYLNWLLQKPGQSPQRLIYLVSKLDSGVPDRFSGSGSGTDFTLKISRVEAEDVGVYYCWQGTHFPRTFGQGTKVEIKRTVAAPSVFIFPPSDEQLKSGTASVVCLLNNFYPREAKVQWKVDNALQSGNSQESVTEQDSKDSTYSLSSTLTLSKADYEKHKVYACEVTHQGLSSPVTKSFNRGEC",EC50,Aβ 20-42 globulomer [1],0.397 nM
same,EC50,Aβ1-42 [2],0.024 nM
"DVD226 (bispecific antibody, human IgG1, kappa, DVD-Ig; also called VD226H/VD226L) heavy: not shown light: EIVLTQSPDFQSVTPKEKVTITCRASQSIGSSLHWYQQKPDQSPKLLIKYASQSFSGVPSRFSGSGSGTDFTLTINSLEAEDAAAYYCHQSSSLPFTFGPGTKVDIKRTVAAPDVVMTQSPLSLPVTPGEPASISCKSSQSLLDSDGKTYLNWLLQKPGQSPQRLIYLVSKLDSGVPDRFSGSGSGTDFTLKISRVEAEDVGVYYCWQGTHFPRTFGQGTKVEIKRTVAAPSVFIFPPSDEQLKSGTASVVCLLNNFYPREAKVQWKVDNALQSGNSQESVTEQDSKDSTYSLSSTLTLSKADYEKHKVYACEVTHQGLSSPVTKSFNRGEC",EC50,Recombinant Human IL-1β [3],9.52 nM
same,N-Terminal VD IL-1β Neutralization Assay EC50,Recombinant Human IL-1β [4],0.028 nM
same,EC50,Aβ1-42 [2],0.045 nM
"DVD225 (bispecific antibody, human IgG1, kappa, DVD-Ig; also called VD225H/VD225L) heavy: not shown light: DVVMTQSPLSLPVTPGEPASISCKSSQSLLDSDGKTYLNWLLQKPGQSPQRLIYLVSKLDSGVPDRFSGSGSGTDFTLKISRVEAEDVGVYYCWQGTHFPRTFGQGTKVEIKRTVAAPEIVLTQSPDFQSVTPKEKVTITCRASQSIGSSLHWYQQKPDQSPKLLIKYASQSFSGVPSRFSGSGSGTDFTLTINSLEAEDAAAYYCHQSSSLPFTFGPGTKVDIKRTVAAPSVFIFPPSDEQLKSGTASVVCLLNNFYPREAKVQWKVDNALQSGNSQESVTEQDSKDSTYSLSSTLTLSKADYEKHKVYACEVTHQGLSSPVTKSFNRGEC",C-Terminal VD IL-1β Neutralization Assay EC50,Recombinant Human IL-1β [4],12.7 nM
same,EC50,Recombinant Human IL-1β [5],3940 nM
same,EC50,Aβ1-42 [6],0.016 nM
"AB010 (antibody, human IgG1, lambda, V domains shown, also called IGF1,2 parent antibody) VH: QVQLVQSGAEVKKPGASVKVSCKASGYTFTSYDINWVRQATGQGLEWMGWMNPNSGNTGYAQKFQGRVTMTRNTSISTAYMELSSLRSEDTAVYYCARDPYYYYYGMDVWGQGTTVTVSS VL: QSVLTQPPSVSAAPGQKVTISCSGSSSNIENNHVSWYQQLPGTAPKLLIYDNNKRPSGIPDRFSGSKSGTSATLGITGLQTGDEADYYCETWDTSLSAGRVFGGGTKLTVLG",EC50,IGF-II [7],2.93 nM
same,EC50,IGF-I [8],10.1 nM
"DVD202 (bispecific antibody, human IgG1, kappa, DVD-Ig; also called VD202H/VD202L) heavy: not shown light: DVVMTQSPLSLPVTPGEPASISCKSSQSLLDSDGKTYLNWLLQKPGQSPQRLIYLVSKLDSGVPDRFSGSGSGTDFTLKISRVEAEDVGVYYCWQGTHFPRTFGQGTKVEIKRTVAAPDVLVTQSPLSLPVTPGEPASISCRSTQTLVHRNGDTYLEWYLQKPGQSPQSLIYKVSNRFSGVPDRFSGSGSGTDFTLKISRVEAEDVGVYYCFQGSHVPYTFGQGTKLEIKRTVAAPSVFIFPPSDEQLKSGTASVVCLLNNFYPREAKVQWKVDNALQSGNSQESVTEQDSKDSTYSLSSTLTLSKADYEKHKVYACEVTHQGLSSPVTKSFNRGEC",EC50,Aβ 20-42 globulomer [9],0.178 nM
same,EC50,Aβ1-42 [6],0.017 nM
"AB044 (antibody, human IgG1, lambda, V domains shown, the light constant region is therefore doubtful) VH: EVKLVESGGGLVKPGGSLRLSCAASGFTFSSYAMSWVRQAPGKGLEWVASIHNRGTIFYLDSVKGRFTISRDNVRNTLYLQMNSLRAEDTAVYYCTRGRSNSYAMDYWGQGTSVTVSS VL: DVLVTQSPLSLPVTPGEPASISCRSTQTLVHRNGDTYLEWYLQKPGQSPQSLIYKVSNRFSGVPDRFSGSGSGTDFTLKISRVEAEDVGVYYCFQGSHVPYTFGQGTKLEIKR",EC50,Aβ 20-42 globulomer [10],0.319 nM
"DVD229 (bispecific antibody, human IgG1, lambda, DVD-Ig; also called VD229H/VD229L) heavy: not shown light: DVVMTQSPLSLPVTPGEPASISCKSSQSLLDSDGKTYLNWLLQKPGQSPQRLIYLVSKLDSGVPDRFSGSGSGTDFTLKISRVEAEDVGVYYCWQGTHFPRTFGQGTKVEIKRTVAAPQSVLTQPPSVSAAPGQKVTISCSGSSSNIENNHVSWYQQLPGTAPKLLIYDNNKRPSGIPDRFSGSKSGTSATLGITGLQTGDEADYYCETWDTSLSAGRVFGGGTKLTVLGQPKAAPSVTLFPPSSEELQANKATLVCLISDFYPGAVTVAWKADSSPVKAGVETTTPSKQSNNKYAASSYLSLTPEQWKSHRSYSCQVTHEGSTVEKTVAPTECS",EC50,IGF-I [11],210 nM
same,EC50,IGF-II [12],131 nM
same,EC50,Aβ1-42 [6],0.016 nM
"AB043 (antibody, human IgG1, kappa, V domains shown) VH: EVQLLESGGGLVQPGGSLRLSCAASGFTFSNYGMSWVRQAPGKGLEWVASIRSGGGRTYYSDNVKGRFTISRDNSKNTLYLQMNSLRAEDTAVYYCVRYDHYSGSSDYWGQGTLVTVSS VL: DVVMTQSPLSLPVTPGEPASISCKSSQSLLDSDGKTYLNWLLQKPGQSPQRLIYLVSKLDSGVPDRFSGSGSGTDFTLKISRVEAEDVGVYYCWQGTHFPRTFGQGTKVEIKR",EC50,Aβ1-42 [13],0.012 nM
